Assay results taken from the DeepSol protein solubility set.

Assay: soluble on expression in E. coli; label from the status in PepcDB or PDB records

| Sequence | soluble on expression in E. coli |
| --- | --- |
| MNDTPDDTFVSGYLLYLLAASSEEASAQFHDHIRAQGLRVPEWRVLACLVDNDAMMITRLAKLSLMEQSRMTRIVDQMDARGLVTRVADAKDKRRVRVRLTDDGRALAESLVASARAHETRLLSALADTDAARIKGVLRTLLDVLDRPRESR | soluble |
| MNEHHQPFEEIKLINANGAEQWSARQLGKLLGYSEYRHFIPVLTRAKEACENSGHTIDDHFEEILDMVKIGSNAKRALKDIVLSRYACYLVVQNGDPAKPVIAAGQTYFAIQTRRQELADDEAFKQLREDEKRLFLRNELKEHNKQLVEAAQQAGVATATDFAIFQNHGYQGLYGGLDQKAIHQRKGLKKNQKILDHMGSTELAANLFRATQTEEKLKRDGVNSKQQANTTHFDVGRKVRQTIQELGGTMPEELPTPQVSIKQLENSVKITEKK | soluble |
| MNEILKTEDEVVRWSVKKINDDTTLIEFELKRDLVPEDLKKINPPDAVKNKFANTFIVLSGRGPIWLYGFLIHFYHPTKGIGVFDPRLGGAVVVSSHSPNKKVGDVIKWEG | not soluble |
| MNEMTLLYSPSCWVPGKNRDEVMNDFFAGIKNAFEALKNDEKIPRKENVAYGMEENQKVDIWGDASDKLLIFIHGGYWAAGTRKDCLTPARCALNNEYAFASVGYGLSTEGRTLTETVEDVVNGVDFILKLYPNVSNVLVGGHSAGAHLAMNAVARLRNPRIRGLLLFSGCYFLEELIGTEIGTDINLTTDQAKLNSCDLSKLDGLKLDSLVILGLQEAPKLIEQNRDFVAQQGQSRIEEFPNSGHYTIMTNLLNHTSGEYLAMEKFLKNF | not soluble |
| MNEQVHARLKALARPMTGEEYLESLRDGREVYFMGERVKDVTTHPAFRNTARMFARWYDRLHELHKEDLERSKDPSGWKWTVPTESGNGWTHPFFVGPRSAEDLLKARDTIAELQRTVYGWGGRSPDYKAAFVGTLGPNAEFYAPYQENARRWYKETQEKLLYWNHAIVNPPVDRHKPVEEVGDVYMHVERETDAGIVVSGAKVVATGSAFTHVNFIAHYGPLPIKDKKFALIFVVPMDAKGVKLISRASYEFIAAKTGSPFDYPLSSRLDENDAILVFDNVLVPWENVFVYGDVEKVNAFFPLSGFVHRFPFQGCTRLAVKLDFIAGLTMKALDVTGASQFRGVQARLGEILTYRNLFWALTEAMARDPMPWVDGYVLPNLWAGLTYRVLAPEVYPKIKDIIERDLASALIYLPSHAKDFQNPQIRRYLDQYVRGNGVDAVTRVKIMKALWDAVGTEFGGRHELYERNYAGNHENIRIEVLGAMEAAGVNEALRAFVDKFLGEYDLEGWKVPDLINPTEA | soluble |
| MNEQWLEHLPLKDIKEISPVSGGDVNEAYRVETDTDTFFLLVQRGRKESFYAAEIAGLNEFERAGITAPRVIASGEVNGDAYLVMTYLEEGASGSQRQLGQLVAQLHSQQQEEGKFGFSLPYEGGDISFDNHWQDDWCTIFVDKRLDHLKDELLNRGLWDANDIKVYDKVRRQIVAELEKHQSKPSLLHGDLWGGNYMFLKDGRPALFDPAPLYGDREFDIGITTVFGGFTSEFYDAYNKHYPLAKGASYRLEFYRLYLLMVHLLKFGEMYRDSVAHSMNKILQDTTSLEHHHHHH | not soluble |
| MNGASPAHSLVSTTAVAGGGGSSGAAAGLDDFHFPPDIPSMQERKDEAMRVLKADLMTELDKEVKSLEEDSWMFEGPRSRIHLISRRGNFLKKGGEVKLW | not soluble |
| MNGGCDLWIGCARWLRDMKVLTTDKNGTMLEFASVLRDGILLCRLANTLVPNGIDQKKIMRTNQPSPFLCCNNINYFAMFCKTYFNLEDADLFTAEDLYYMNGFQKVLKTLSFLSHTKESLSRGVDPFPDTDNNQEGTSNGSEFEDDVEIYQSLHDNIENVDPNRTIYGPITSADPEEQQSEQLYDRIVTNRKPSMNENDLQNTPTLKRNRCIRELYDTEKNYVAQALVTIIKTFYEPLKGIIPTSDYNIIFGNIEEINVLHTALLADLEYPVKVALGLSDATPPRPISLNECVPQTIGEVFIKYRDQFLAYGKYCSNLPDSRKLSNELLKTNEFISRNINELTAQGNCKFGMNDLLCVPFQRLTKYPLLLKELQKKTDLASPDRKSLEEAVEVMEDVCNYINEESRDTNAIKVIDEIEQSITDLSMPLNVKLHDYGRVNLDGEVKMAESTLTQAGKPKQRYIFLFDKVIVVCKAANKVMAAKTTGASARTNTFTYKNAYVMSELTIDKNASLDVKSGGTITRRTQYVIIMTRDRNENNEITQLTFYFKNEATRNNWMTALLLSKSNVSPTDYLRDTNHKVAFHSFRVDVKNPATCDVCDKLMKGLQYQGYKCEFHEGDIVVANSNSTPSDLSYLQFAKGDRIEVIKMQGHNRFTGCLINNRNRTGLVHLDHVSQSRTTSMIGLSPIDSPAGSIAPRVVRNESTVLPNKLLSDGSSRSLSGPHGSRSSRNSSSSTINGSMDSVPRQQDYVNTEISEFLWYMGEMERAKAESTLKGTPNGTFLVRYSKNRKQTAISLSYKNDVKHMIIEQNSDGKVYLDEDYIFNSTVELVQYYRSNNLIEIFAALDTCLKNPYSQCKVFKAVHDYDAPSPNNEGKFLSFKTGDIVVLLDTVGEDRGWWKGQVNNKSGFFPLSYVKPYDPATEGSSSPVTPTSSSS | not soluble |
| MNGGTFTTGKEKERAGIYFNFKTTAQERVSLSERGTVALPVASSWGEAKTFVSISSVEDLNKKVGLSIDDPSLLLLREAKKNAKTVLMYRLTEGVRASADIAEGVKATAVYGGTKGNDIIIRINQNVLDANSFDVTTYMDESEVDKQTVKKAEELTANGYVTFTGTGDLSSTIPLTGSEGDTAAETLNASAGIRLSGGTDKAPVNSDYTDFLAAAETESFDVIALPVAEGDQLKATFAAFIKRLRDGQGQKVQGVTANYAGDYEGIINVTEGVLLEDGTEVTPDKATAWVAGASAGATFNQSLTFVEYEGAVDVLHRLDHDTIVERLGKGEFLFTFDARDKSVSVEKDINSLVTFTAEKNKKFAKNKIVRVLDAVNNDLTRELKALIKSRKGSGSDIPASEDGLQYVKTMITQYMTTLQDAGGITGFDSDEDITISMNEDRDGFLIDLLYSLSTQQKNSTLMWRLEHHHHHH | soluble |
| MNGIFIEDKRLGIRLPHLDKPWEDYSPNEQEAILLEWETIRGLIPDRIAELEREINKKQDELGQEADFARSCQLNADIAELASIVNDLWIWYRIVPSVSSRHGKKRVEKP | not soluble |
| MNGKRPAEPGPARVGKKGKKEVMAEFSDAVTEETLKKQVAEAWSRRTPFSHEVIVMDMDPFLHCVIPNFIQSQDFLEGLQKELMNLDFHEKYNDLYKFQQSDDLKKRREPHISTLRKILFEDFRSWLSDISKIDLESTIDMSCAKYEFTDALLCHDDELEGRRIAFILYLVPPWDRSMGGTLDLYSIDEHFQPKQIVKSLIPSWNKLVFFEVSPVSFHQVSEVLSEEKSRLSISGWFHGPSLTRPPNYFEPPIPRSPHIPQDHEILYDWINPTYLDMDYQVQIQEEFEESSEILLKEFLKPEKFTKVCEALEHGHVEWSSRGPPNKRFYEKAEESKLPEILKECMKLFRSEALFLLLSNFTGLKLHFLAPSEEDEMNDKKEAETTDITEEGTSHSPPEPENNQMAISNNSQQSNEQTDPEPEENETKKESSVPMCQGELRHWKTGHYTLIHDHSKAEFALDLILYCGCEGWEPEYGGFTSYIAKGEDEELLTVNPESNSLALVYRDRETLKFVKHINHRSLEQKKTFPNRTGFWDFSFIYYE | not soluble |
| MNGSKENAMKIDLNSDMGEGFGPYRLCDDEAMMKIVSSANIACGFHGGDPDTMARMVRLAKANGVGIGAHPGLPDRAGFGRREIPFQPDELRQQMLYQLGALMAIAGAEGMKVGHFSFHAAMGNMVNRDPVLADLMMNAIATVDPRLVVFVTPESEIERAAKRAGLKTLALFLADRAYDAEGRLVARGLPGALVKDETSVRARVRRFLTHGQVEAIDGTIIAMPAHSILVHSDTPGSLELARIIRSEIEASGATLAPAAEHAALEHHHHHH | soluble |
| MNGTGNTILVTGGTSGIGLGLALRLHKAGNKVIIAGRRKALLDKIVSEHPGIESVVLDVTDPHSIQHSSEALAISHPNLNVLINNAGIMHWEDLTDAKYLSTAENIVTTNLLGTIRMVYAFTPNLLKQPSATIVNVSSALAFVPLPATPTYSATKAAVHSFTQSLRVQLADSPVEVIELAPPGVRTTLLGQENDEHAMPLEAFLDEIFKLLDISPTPQELVVERAKPLRFAEANGSHGEVLKMLAGYKPPAE | not soluble |
